Results published in publication PMC10234109 (2023).
One block for each binder: values may come before it.

Molecular target: T1, HCBD–GST (helical cargo-binding domain of mouse Myo6, residues 1052–1096) (Mus musculus (Mouse), UniProt Q64331)
T1 chain: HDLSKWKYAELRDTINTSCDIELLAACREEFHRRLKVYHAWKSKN
Test: GST pulldown, Coomassie-stained gel

binding result: no binding
B1: GIPC3 PDZ (93–181), MBP-tagged (protein)
chain: GETKEVEVTKTEDALGLTITDNGAGYAFIKRIKEGSIINRIEAVCVGDSIEAINDHSIVGCRHYEVAKMLRELPKSQPFTLRLVQPRRA

binding result: binds
B2: GIPC3 PDZ-GH2 domains (93–297), MBP-tagged (protein)
chain: GETKEVEVTKTEDALGLTITDNGAGYAFIKRIKEGSIINRIEAVCVGDSIEAINDHSIVGCRHYEVAKMLRELPKSQPFTLRLVQPRRAFDMIGQRSRSSKCPVEAKVSSGRETLRLRSGGAATVEEAPSDVEAAAARRVDDLLESYMGIRDPELAAAVVETARSSAGAQAFARGLDAVLGEFAFPDEFVVEVWAAIGEAHDACG
